Measured values from patent publication US20240043506A1 (GARVAN INSTITUTE OF MEDICAL RESEARCH, published 2024).

B1: O4G1 (antibody, V domains shown)
VH: EVQLLESGGGLVQPGGSLRLSCAASGFRFDYEDMGWVRQAPGKGLEWVSSIDSHGASTYYADSVKGRFTISRDNSKNTLYLQMNSLRAEDTAVYYCAKYSHSVSYGPFDYWGQGTLVTVSS
VL: DIQMTQSPSSLSASVGDRVTITCRASQYIYDDLNWYQQKPGKAPKLLIYSASSLQSGVPSRFSGSGSGTDFTLTISSLQPEDFATYYCQQTNTYPQTFGQGTKVEIK
B2: O4C12 (antibody, V domains shown)
VH: EVQLLESGGGLVQPGGSLRLSCAASGFRISDEDMGWVRQAPGKGLEWVSYIDNAGASTYYADSVKGRFTISRDNSKNTLYLQMNSLRAEDTAVYYCAKQINQGEGFDYWGQGTLVTVSS
VL: DIQMTQSPSSLSASVGDRVTITCRASQSISSYLNWYQQKPGKAPKLLIYYASNLQSGVPSRFSGSGSGTDFTLTISSLQPEDFATYYCQQGLGMPITFGQGTKVEIK

Target: SARS-CoV-2 S protein RBD (residues 319-541 of the S protein), soluble, with C-terminal Avitag and His tag (SARS-CoV-2, UniProt P0DTC2 319-541)

| Binder | Kd [nM] |
| --- | --- |
| B1 | 19 |
| B2 | 23 |
